Experimental data taken from paper PMC11748629, “Unidirectional MCM translocation away from ORC drives origin licensing” (Nature Communications, 2025).

T1: Mcm2 (Saccharomyces cerevisiae, UniProt P29469 1-868)
T1 construct: Mcm2, S. cerevisiae; Subunit of m7, written alone for the contacts seen in OC1M^Mcm5RA; also called Mcm2 subunit of MCM; source: S. cerevisiae strain yGC226, purified as a subunit of MCM-Cdt1
T1 sequence: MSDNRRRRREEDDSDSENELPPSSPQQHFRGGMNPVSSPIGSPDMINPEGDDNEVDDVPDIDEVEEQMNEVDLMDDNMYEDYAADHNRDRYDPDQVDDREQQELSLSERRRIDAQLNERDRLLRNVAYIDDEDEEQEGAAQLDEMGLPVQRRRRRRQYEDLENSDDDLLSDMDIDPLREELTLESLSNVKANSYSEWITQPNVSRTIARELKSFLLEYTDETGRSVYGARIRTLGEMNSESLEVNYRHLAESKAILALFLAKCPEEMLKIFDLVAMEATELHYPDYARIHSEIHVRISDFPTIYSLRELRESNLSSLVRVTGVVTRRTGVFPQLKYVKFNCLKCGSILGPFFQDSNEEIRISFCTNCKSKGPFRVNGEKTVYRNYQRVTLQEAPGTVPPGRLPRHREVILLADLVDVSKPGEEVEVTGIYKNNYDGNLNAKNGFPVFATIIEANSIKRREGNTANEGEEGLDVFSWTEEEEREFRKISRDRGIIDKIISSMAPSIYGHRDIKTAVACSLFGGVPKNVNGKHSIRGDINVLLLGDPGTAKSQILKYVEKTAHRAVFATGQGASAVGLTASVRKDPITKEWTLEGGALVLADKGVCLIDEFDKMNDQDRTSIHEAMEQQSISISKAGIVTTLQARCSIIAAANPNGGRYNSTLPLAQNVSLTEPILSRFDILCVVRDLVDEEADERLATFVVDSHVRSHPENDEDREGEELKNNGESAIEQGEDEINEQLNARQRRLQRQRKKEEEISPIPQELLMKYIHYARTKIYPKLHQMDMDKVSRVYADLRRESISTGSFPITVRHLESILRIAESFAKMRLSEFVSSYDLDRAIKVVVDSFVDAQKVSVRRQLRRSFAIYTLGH

B1: Mcm5 R549A (natural protein, Saccharomyces cerevisiae)
chain: MSFDRPEIYSAPVLQGESPNDDDNTEIIKSFKNFILEFRLDSQFIYRDQLRNNILVKNYSLTVNMEHLIGYNEDIYKKLSDEPSDIIPLFETAITQVAKRISILSRAQSANNNDKDPENTSMDTDSLLLNSLPTFQLILNSNANQIPLRDLDSEHVSKIVRLSGIIISTSVLSSRATYLSIMCRNCRHTTSITINNFNSITGNTVSLPRSCLSTIESESSMANESNIGDESTKKNCGPDPYIIIHESSKFIDQQFLKLQEIPELVPVGEMPRNLTMTCDRYLTNKVIPGTRVTIVGIYSIYNSKNGAGSGRSGGGNGGSGVAIRTPYIKILGIQSDVETSSIWNSVTMFTEEEEEEFLQLSRNPKLYEILTNSIAPSIFGNEDIKKAIVCLLMGGSKKILPDGMRLRGDINVLLLGDPGTAKSQLLKFVEKVSPIAVYTSGKGSSAAGLTASVQRDPMTREFYLEGGAMVLADGGVVCIDEFDKMRDEDRVAIHEAMEQQTISIAKAGITTVLNSRTSVLAAANPIYGRYDDLKSPGDNIDFQTTILSAFDMIFIVKDDHNEERDISIANHVINIHTGNANAMQNQQEENGSEISIEKMKRYITYCRLKCAPRLSPQAAEKLSSNFVTIRKQLLINELESTERSSIPITIRQLEAIIRITESLAKLELSPIAQERHVDEAIRLFQASTMDAASQDPIGGLNQASGTSLSEIRRFEQELKRRLPIGWSTSYQTLRREFVDTHRFSQLALDKALYALEKHETIQLRHQGQNIYRSGV
notes: Mcm5, S. cerevisiae; Subunit of m7, written alone for the contacts seen in OC1M^Mcm5RA; also called Mcm5RA; source: S. cerevisiae strain yGC226, purified as a subunit of MCM-Cdt1

Tests used:
Mcm5 R549A = molecular target: B1; test: cryo-EM structure; OC1M^Mcm5RA: 30 nM MH-ARS1-MH DNA, 60 nM ORC, 90 nM Cdc6, 60 nM MCM-Cdt1 (Mcm5 R549A), 2 mM ATP; same buffer; 30 °C, 30 min; conformer 1 at 3.7 Å, conformer 2 at 3.4 Å (Orc1 ATPase domain seen only in conformer 1); conditions: both partners purified
Mcm2 = molecular target: T1, Mcm2; test: as above; conditions: both partners purified

| binding result (Mcm5 R549A) | binding result (Mcm2) | Binder |
| --- | --- | --- |
| binds |  | Orc3 (natural protein, Saccharomyces cerevisiae, Orc3, S. cerevisiae; Subunit of m1, written alone for the contacts seen in the structures; also called Orc3 subunit of ORC; source: S. cerevisiae strain ySD-ORC, purified as a subunit of ORC) MSDLNQSKKMNVSEFADAQRSHYTVYPSLPQSNKNDKHIPFVKLLSGKESEVNVEKRWELYHQLHSHFHDQVDHIIDNIEADLKAEISDLLYSETTQKRRCFNTIFLLGSDSTTKIELKDESSRYNVLIELTPKESPNVRMMLRRSMYKLYSAADAEEHPTIKYEDINDEDGDFTEQNNDVSYDLSLVENFKRLFGKDLAMVFNFKDVDSINFNTLDNFIILLKSAFKYDHVKISLIFNINTNLSNIEKNLRQSTIRLLKRNYHKLDVSSNKGFKYGNQIFQSFLDTVDGKLNLSDRFVEFILSKMANNTNHNLQLLTKMLDYSLMSYFFQNAFSVFIDPVNVDFLNDDYLKILSRCPTFMFFVEGLIKQHAPADEILSLLTNKNRGLEEFFVEFLVRENPINGHAKFVARFLEEELNITNFNLIELYHNLLIGKLDSYLDRWSACKEYKDRLHFEPIDTIFQELFTLDNRSGLLTQSIFPSYKSNIEDNLLSWEQVLPSLDKENYDTLSGDLDKIMAPVLGQLFKLYREANMTINIYDFYIAFRETLPKEEILNFIRKDPSNTKLLELAETPDAFDKVALILFMQAIFAFENMGLIKFQSTKSYDLVEKCVWRGI |
|  | binds | B1 |
